T1: His6-TEV-MSP1D1 (CA15914) (human Apo A-I derived, engineered, biotinylated with EZ-link NHS-Biotin for the BLI experiment only)
T1 construct: Membrane scaffold protein; The entry holds the 6xHis tag, the TEV cleavage site and MSP1D1; Tested in Apo-state (lipid free) and in Nanodisc-state (POPC nanodisc, two MSP1D1 per nanodisc)
T1 chain: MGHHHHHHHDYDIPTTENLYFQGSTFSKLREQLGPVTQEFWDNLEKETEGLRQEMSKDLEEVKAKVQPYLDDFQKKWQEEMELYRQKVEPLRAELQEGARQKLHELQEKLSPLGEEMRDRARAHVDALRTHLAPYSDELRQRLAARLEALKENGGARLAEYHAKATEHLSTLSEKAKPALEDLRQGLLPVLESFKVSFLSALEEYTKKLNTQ

B1: MDNb1_B9^c7HopQ MegaBody (CA15898) (other)
chain: QVQLVESGGGLVQTKTTTSVIDTTNDAQNLLTQAQTIVNTLKDYCPILIAKSSSSNGGTNNANTPSWQTAGGGKNSCATFGAEFSAASDMINNAQKIVQETQQLSANQPKNITQPHNLNLNSPSSLTALAQKMLKNAQSQAEILKLANQVESDFNKLSSGHLKDYIGKCDASAISSANMTMQNQKNNWGNGCAGVEETQSLLKTSAADFNNQTPQINQAQNLANTLIQELGNNTYEQLSRLLTNDNGTNSKTSAQAINQAVNNLNERAKTLAGGTTNSPAYQATLLALRSVLGLWNSMGYAVICGGYTKSPGENNQKDFHYTDENGNGTTINCGGSTNSNGTHSYNGTNTLKADKNVSLSIEQYEKIHEAYQILSKALKQAGLAPLNSKGEKLEAHVTTSKYGSLRLSCAASGRTLCSIPMGWFRQAPGKEREFVAAIRWSGGSTYYADSVKGRFSISKDNAKNTVYLQMNNLKPEDTATYYCASAAPYSSWSRGLEYDYWGQGTQVTVSSHHHHHHEPEA
notes: MegaBody: c7HopQ scaffold inserted in the first β-turn of Nanobody MP1521_B9; Entry includes 6xHis and EPEA tags; The name is printed 'MDNb', probably for 'MbNb'
B2: MbNbB7^c7HopQ MegaBody (CA15901) (other)
chain: QVQLVESGGGLVQTKTTTSVIDTTNDAQNLLTQAQTIVNTLKDYCPILIAKSSSSNGGTNNANTPSWQTAGGGKNSCATFGAEFSAASDMINNAQKIVQETQQLSANQPKNITQPHNLNLNSPSSLTALAQKMLKNAQSQAEILKLANQVESDFNKLSSGHLKDYIGKCDASAISSANMTMQNQKNNWGNGCAGVEETQSLLKTSAADFNNQTPQINQAQNLANTLIQELGNNTYEQLSRLLTNDNGTNSKTSAQAINQAVNNLNERAKTLAGGTTNSPAYQATLLALRSVLGLWNSMGYAVICGGYTKSPGENNQKDFHYTDENGNGTTINCGGSTNSNGTHSYNGTNTLKADKNVSLSIEQYEKIHEAYQILSKALKQAGLAPLNSKGEKLEAHVTTSKYGSLRLSCAASGRSFSSYGMGWFRQAPGKEREFAAGITGTAGITYYTDSVKGRFTISRDNAKNTVYLQMNNLKPEDTAVYYCAAGLTSYAGRGAAGYDYWGQGTQVTVSSHHHHHHEPEA
notes: MegaBody: c7HopQ scaffold inserted in the first β-turn of Nanobody MP1522_B7; Entry includes 6xHis and EPEA tags
B3: MbNbE4^c7HopQ MegaBody (CA15191) (other)
chain: QVQLVESGGGLVQTKTTTSVIDTTNDAQNLLTQAQTIVNTLKDYCPILIAKSSSSNGGTNNANTPSWQTAGGGKNSCATFGAEFSAASDMINNAQKIVQETQQLSANQPKNITQPHNLNLNSPSSLTALAQKMLKNAQSQAEILKLANQVESDFNKLSSGHLKDYIGKCDASAISSANMTMQNQKNNWGNGCAGVEETQSLLKTSAADFNNQTPQINQAQNLANTLIQELGNNTYEQLSRLLTNDNGTNSKTSAQAINQAVNNLNERAKTLAGGTTNSPAYQATLLALRSVLGLWNSMGYAVICGGYTKSPGENNQKDFHYTDENGNGTTINCGGSTNSNGTHSYNGTNTLKADKNVSLSIEQYEKIHEAYQILSKALKQAGLAPLNSKGEKLEAHVTTSKYGSLRLSCAASGRTFGSTFMGWFRQAPGKERDFVASITWNRGLTTYADSVKGRFTISRDSAKNTVDLQMNNLKPEDTAVYYCVLGMGTSFASWGQGTQVTVSSHHHHHHEPEA
notes: MegaBody: c7HopQ scaffold inserted in the first β-turn of Nanobody MP1521_E4; Entry includes 6xHis and EPEA tags
B4: MbNbG9^c7HopQ MegaBody (CA15899) (other)
chain: QVQLVESGGGSVQTKTTTSVIDTTNDAQNLLTQAQTIVNTLKDYCPILIAKSSSSNGGTNNANTPSWQTAGGGKNSCATFGAEFSAASDMINNAQKIVQETQQLSANQPKNITQPHNLNLNSPSSLTALAQKMLKNAQSQAEILKLANQVESDFNKLSSGHLKDYIGKCDASAISSANMTMQNQKNNWGNGCAGVEETQSLLKTSAADFNNQTPQINQAQNLANTLIQELGNNTYEQLSRLLTNDNGTNSKTSAQAINQAVNNLNERAKTLAGGTTNSPAYQATLLALRSVLGLWNSMGYAVICGGYTKSPGENNQKDFHYTDENGNGTTINCGGSTNSNGTHSYNGTNTLKADKNVSLSIEQYEKIHEAYQILSKALKQAGLAPLNSKGEKLEAHVTTSKYGSLRLSCAASGRTFSTYRMGWFRQAPGKEREFVAGWNSINIYYADSVKGRFTISGDNAKSTVYLQMNSLKPEDTAVYYCAARGLGQTEYNYWGQGTQVTVSSHHHHHHEPEA
notes: MegaBody: c7HopQ scaffold inserted in the first β-turn of Nanobody MP1521_G9; Entry includes 6xHis and EPEA tags
B5: MbNb2_B9^c7HopQ MegaBody (CA15903) (other)
chain: QVQLVESGGGLVQTKTTTSVIDTTNDAQNLLTQAQTIVNTLKDYCPILIAKSSSSNGGTNNANTPSWQTAGGGKNSCATFGAEFSAASDMINNAQKIVQETQQLSANQPKNITQPHNLNLNSPSSLTALAQKMLKNAQSQAEILKLANQVESDFNKLSSGHLKDYIGKCDASAISSANMTMQNQKNNWGNGCAGVEETQSLLKTSAADFNNQTPQINQAQNLANTLIQELGNNTYEQLSRLLTNDNGTNSKTSAQAINQAVNNLNERAKTLAGGTTNSPAYQATLLALRSVLGLWNSMGYAVICGGYTKSPGENNQKDFHYTDENGNGTTINCGGSTNSNGTHSYNGTNTLKADKNVSLSIEQYEKIHEAYQILSKALKQAGLAPLNSKGEKLEAHVTTSKYGSLRLSCVRSARTFGSVAMGWFRQAPGKEREFVTAIDWSGSNTLYADSVKGRFTISRDNAKNTVYLQMNSLKPDDTAVYYCAASRRVVVTTSDFDSWGQGTQVTVSSHHHHHHEPEA
notes: MegaBody: c7HopQ scaffold inserted in the first β-turn of Nanobody MP1522_B9; Entry includes 6xHis and EPEA tags
B6: MbNbH5^c7HopQ MegaBody (CA15904) (other)
chain: QVQLVESGGGLVQTKTTTSVIDTTNDAQNLLTQAQTIVNTLKDYCPILIAKSSSSNGGTNNANTPSWQTAGGGKNSCATFGAEFSAASDMINNAQKIVQETQQLSANQPKNITQPHNLNLNSPSSLTALAQKMLKNAQSQAEILKLANQVESDFNKLSSGHLKDYIGKCDASAISSANMTMQNQKNNWGNGCAGVEETQSLLKTSAADFNNQTPQINQAQNLANTLIQELGNNTYEQLSRLLTNDNGTNSKTSAQAINQAVNNLNERAKTLAGGTTNSPAYQATLLALRSVLGLWNSMGYAVICGGYTKSPGENNQKDFHYTDENGNGTTINCGGSTNSNGTHSYNGTNTLKADKNVSLSIEQYEKIHEAYQILSKALKQAGLAPLNSKGEKLEAHVTTSKYGSLRLSCAASGFTFSTYSMSWVRQAPGKGLEWVSRILTDGGTTSYPDSVKGRFTISRDNAKNTLYLQMNNLKPEDTAVYYCARGWPSDGYSGGYRGQGTQVTVSSHHHHHHEPEA
notes: MegaBody: c7HopQ scaffold inserted in the first β-turn of Nanobody MP1521_H5; Entry includes 6xHis and EPEA tags
B7: MbNbB4^c7HopQ MegaBody (CA15907) (other)
chain: QVQLVESGGGLVQTKTTTSVIDTTNDAQNLLTQAQTIVNTLKDYCPILIAKSSSSNGGTNNANTPSWQTAGGGKNSCATFGAEFSAASDMINNAQKIVQETQQLSANQPKNITQPHNLNLNSPSSLTALAQKMLKNAQSQAEILKLANQVESDFNKLSSGHLKDYIGKCDASAISSANMTMQNQKNNWGNGCAGVEETQSLLKTSAADFNNQTPQINQAQNLANTLIQELGNNTYEQLSRLLTNDNGTNSKTSAQAINQAVNNLNERAKTLAGGTTNSPAYQATLLALRSVLGLWNSMGYAVICGGYTKSPGENNQKDFHYTDENGNGTTINCGGSTNSNGTHSYNGTNTLKADKNVSLSIEQYEKIHEAYQILSKALKQAGLAPLNSKGEKLEAHVTTSKYGSLRLSCAASKSFFNIYDLAWYRQAPGKQRELVASITKVGSTNYADSVKGRFTTSRDNAKKTVYLQMNSLKPEDTAVYYCNLVSPGGVYNYWGQGTQVTVSSHHHHHHEPEA
notes: MegaBody: c7HopQ scaffold inserted in the first β-turn of Nanobody MP1521_B4; Entry includes 6xHis and EPEA tags
B8: MbNbC10^c7HopQ MegaBody (CA15905) (other)
chain: QVQLVESGGGLVQTKTTTSVIDTTNDAQNLLTQAQTIVNTLKDYCPILIAKSSSSNGGTNNANTPSWQTAGGGKNSCATFGAEFSAASDMINNAQKIVQETQQLSANQPKNITQPHNLNLNSPSSLTALAQKMLKNAQSQAEILKLANQVESDFNKLSSGHLKDYIGKCDASAISSANMTMQNQKNNWGNGCAGVEETQSLLKTSAADFNNQTPQINQAQNLANTLIQELGNNTYEQLSRLLTNDNGTNSKTSAQAINQAVNNLNERAKTLAGGTTNSPAYQATLLALRSVLGLWNSMGYAVICGGYTKSPGENNQKDFHYTDENGNGTTINCGGSTNSNGTHSYNGTNTLKADKNVSLSIEQYEKIHEAYQILSKALKQAGLAPLNSKGEKLEAHVTTSKYGSLRLSCAASGRTSGSYAIGWFRQAPGKEREFAAAISFTAGVTYYSNSVKGRFTISRDSAKNTAYLQMNTLKPEDTAVYYCATLPSLVLILTAKPNIGYWGQGTQVTVSSHHHHHHEPEA
notes: MegaBody: c7HopQ scaffold inserted in the first β-turn of Nanobody MP1522_C10; Entry includes 6xHis and EPEA tags
B9: MbNbA5^c7HopQ MegaBody (CA15906) (other)
chain: QVQLVESGGGLVQTKTTTSVIDTTNDAQNLLTQAQTIVNTLKDYCPILIAKSSSSNGGTNNANTPSWQTAGGGKNSCATFGAEFSAASDMINNAQKIVQETQQLSANQPKNITQPHNLNLNSPSSLTALAQKMLKNAQSQAEILKLANQVESDFNKLSSGHLKDYIGKCDASAISSANMTMQNQKNNWGNGCAGVEETQSLLKTSAADFNNQTPQINQAQNLANTLIQELGNNTYEQLSRLLTNDNGTNSKTSAQAINQAVNNLNERAKTLAGGTTNSPAYQATLLALRSVLGLWNSMGYAVICGGYTKSPGENNQKDFHYTDENGNGTTINCGGSTNSNGTHSYNGTNTLKADKNVSLSIEQYEKIHEAYQILSKALKQAGLAPLNSKGEKLEAHVTTSKYGSLRLSCAASGFAFSNSYMSWVRQAPGKGPEWVSSISPSAWIITHGDSVKGRFTISRDNAKNTLYLQMNHLKPEDAALYYCARRQGYDGYVPSRDYWGQGTQVTVSSHHHHHHEPEA
notes: MegaBody: c7HopQ scaffold inserted in the first β-turn of Nanobody MP1522_A5; Entry includes 6xHis and EPEA tags
B10: MbNbA12^c7HopQ MegaBody (CA15900) (other)
chain: QVQLVESGGGLVQTKTTTSVIDTTNDAQNLLTQAQTIVNTLKDYCPILIAKSSSSNGGTNNANTPSWQTAGGGKNSCATFGAEFSAASDMINNAQKIVQETQQLSANQPKNITQPHNLNLNSPSSLTALAQKMLKNAQSQAEILKLANQVESDFNKLSSGHLKDYIGKCDASAISSANMTMQNQKNNWGNGCAGVEETQSLLKTSAADFNNQTPQINQAQNLANTLIQELGNNTYEQLSRLLTNDNGTNSKTSAQAINQAVNNLNERAKTLAGGTTNSPAYQATLLALRSVLGLWNSMGYAVICGGYTKSPGENNQKDFHYTDENGNGTTINCGGSTNSNGTHSYNGTNTLKADKNVSLSIEQYEKIHEAYQILSKALKQAGLAPLNSKGEKLEAHVTTSKYGSLRLSCAASGRTFSSYNMAWFRQVPGKEREFVASIARTGSGTYYRDSVKGRFTISRDNAKNTVYLQMNSLKPQDTAVYYCTAGGSLATISDYWGQGTQVTVSSHHHHHHEPEA
notes: MegaBody: c7HopQ scaffold inserted in the first β-turn of Nanobody MP1522_A12; Entry includes 6xHis and EPEA tags

Molecular target: T1, His6-TEV-MSP1D1 (CA15914)
Assay: ELISA, purified MegaBody on coated MSP (Apo- or Nanodisc-state) vs non-coated wells, A405

Binder | fold ELISA signal over no MSP
B1 | ≥ 4 fold
B2 | ≥ 4 fold
B3 | ≥ 4 fold
B4 | ≥ 4 fold
B5 | ≥ 4 fold
B6 | ≥ 4 fold
B7 | ≥ 4 fold
B8 | ≥ 4 fold
B9 | ≥ 4 fold
B10 | ≥ 4 fold

These binders were tested against T2, His6-TEV-MSP2N2 (CA15915) (human Apo A-I derived, engineered, UniProt P02647 79-267, limits assumed) in the same assay as above.
T2 construct: Membrane scaffold protein; The entry holds the 6xHis tag, the TEV cleavage site and MSP2N2; Tested in Apo-state, in Nanodisc-state, and as the belt of nanodiscs loaded with GABAAR-β3

Binder | fold ELISA signal over no MSP
B1 | ≥ 4 fold
B2 | ≥ 4 fold
B3 | ≥ 4 fold
B4 | ≥ 4 fold
B5 | ≥ 4 fold
B6 | ≥ 4 fold
B7 | ≥ 4 fold
B8 | ≥ 4 fold
B9 | ≥ 4 fold
B10 | ≥ 4 fold
